The values that follow are results of earlier work, collected in publication PMC9558312.

Some targets named below: Asp42 (UniProt position 63, KRGCADNCPKN); Asp59 (UniProt position 80, VCCSTDKCN--); Glu17 (UniProt position 38, YKTCPEGKNLC); His4 (UniProt position 25, YTLKCHNTQLP); Asp101 (UniProt position 119, KKIVSDGNGMN); Asp119 (UniProt position 137, RCKGTDVQAWI); Asp18 (UniProt position 36, KRHGLDNYRGY); Asp48 (UniProt position 66, TNRNTDGSTDY); Asp52 (UniProt position 70, TDGSTDYGILQ); Asp66 (UniProt position 84, RWWCNDGRTPG); Asp87 (UniProt position 105, ALLSSDITASV); Glu35 (UniProt position 53, CAAKFESNFNT); Glu7 (UniProt position 25, VFGRCELAAAM).

What all share (assay): NMR

For “Cardiotoxin V (cytotoxin 5, CTX A5) (Naja naja atra (Naja atra, Taiwan cobra))”, the pKa with Asp42 was 3.2; with Asp59, less than 2; in the series with Glu17, 4; with His4, 5.5.

With “Hen egg white lysozyme (HEWL, lysozyme C) (Gallus gallus)”, the pKa is 4.5 with Asp101; 3.5 with Asp119; 2.8 with Asp18; 1.4 in the series with Asp48; 3.6 with Asp52; 1.2 with Asp66. The pKa with Asp87 is listed as 2.2; with Glu35, 6.1; with Glu7, 2.6.
